# Reference: article PMC10992996, “Human CRB1 and CRB2 form homo- and heteromeric protein complexes in the retina” (Life Science Alliance, 2024)
# T1: CRB1-FLAG p.G1103R (human, UniProt P82279 26-1406, p.G1103R)
# T1 construct: Crumbs homolog 1, canonical form, human, cDNA NM_202153 as printed, with a patient missense mutation in the last laminin G domain; Made by site-directed mutagenesis of m1; also called CRB1 p.G1103R; CRB1-FLAG MT; source: HEK293T, transfected, in lysate; not shown: Strep-Strep-FLAG, N-terminal, kept
# T1 sequence (looked up): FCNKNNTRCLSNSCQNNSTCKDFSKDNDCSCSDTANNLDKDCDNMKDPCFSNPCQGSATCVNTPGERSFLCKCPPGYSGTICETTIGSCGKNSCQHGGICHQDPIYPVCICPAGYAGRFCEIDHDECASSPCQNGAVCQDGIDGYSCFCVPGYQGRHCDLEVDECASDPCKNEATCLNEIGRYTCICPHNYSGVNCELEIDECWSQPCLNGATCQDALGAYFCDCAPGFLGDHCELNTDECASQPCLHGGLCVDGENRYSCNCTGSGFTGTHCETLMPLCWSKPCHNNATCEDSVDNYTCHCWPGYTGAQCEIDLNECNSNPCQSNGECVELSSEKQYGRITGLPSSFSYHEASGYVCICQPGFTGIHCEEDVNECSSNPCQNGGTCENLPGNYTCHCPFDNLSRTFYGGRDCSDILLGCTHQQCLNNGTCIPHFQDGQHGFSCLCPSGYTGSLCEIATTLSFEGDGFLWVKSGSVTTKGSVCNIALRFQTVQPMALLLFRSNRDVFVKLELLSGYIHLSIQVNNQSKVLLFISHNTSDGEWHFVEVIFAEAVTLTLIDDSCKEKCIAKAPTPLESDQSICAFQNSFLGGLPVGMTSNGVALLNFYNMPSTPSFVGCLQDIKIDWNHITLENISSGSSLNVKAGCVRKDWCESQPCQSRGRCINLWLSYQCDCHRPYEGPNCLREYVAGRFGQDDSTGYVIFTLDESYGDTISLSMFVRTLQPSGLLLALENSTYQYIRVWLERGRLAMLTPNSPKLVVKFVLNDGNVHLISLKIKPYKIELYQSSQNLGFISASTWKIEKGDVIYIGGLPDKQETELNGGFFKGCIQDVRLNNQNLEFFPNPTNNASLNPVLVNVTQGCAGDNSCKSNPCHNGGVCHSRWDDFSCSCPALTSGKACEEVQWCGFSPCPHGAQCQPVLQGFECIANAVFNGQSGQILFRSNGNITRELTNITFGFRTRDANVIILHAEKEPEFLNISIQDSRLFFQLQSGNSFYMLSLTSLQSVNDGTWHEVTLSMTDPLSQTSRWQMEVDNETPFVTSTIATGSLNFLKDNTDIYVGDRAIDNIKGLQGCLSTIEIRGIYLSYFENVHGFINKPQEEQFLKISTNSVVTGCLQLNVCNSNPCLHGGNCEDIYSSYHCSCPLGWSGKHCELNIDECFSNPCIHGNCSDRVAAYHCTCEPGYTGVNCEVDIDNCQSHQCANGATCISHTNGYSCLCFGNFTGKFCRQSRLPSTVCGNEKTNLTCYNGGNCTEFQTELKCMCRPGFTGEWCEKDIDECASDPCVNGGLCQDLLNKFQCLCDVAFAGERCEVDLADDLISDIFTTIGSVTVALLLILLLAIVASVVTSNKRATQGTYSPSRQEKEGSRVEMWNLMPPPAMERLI
# Target: T1, CRB1-FLAG p.G1103R
# Experiment: co-IP; HEK293T cells co-transfected pairwise with a FLAG and an HA construct, 48 h; lysis in TBS (30 mM Tris-HCl pH 7.4, 150 mM NaCl) with 0.5% Nonidet P40; FLAG-IP on ANTI-FLAG M2 Affinity Gel 60-90 min at 4°C, elution with FLAG peptide; Western blot with HA and FLAG antibodies; for mutants HA/FLAG signal in eluates relative to WT, three biological replicates
# Conditions: partners not purified
binder,measurement,value
"Human canonical CRB2 (Crumbs homolog 2) (natural protein, Crumbs homolog 2, human, cDNA NM_173689; Stood as bait (FLAG copy) and as prey (HA copy) in the pairwise co-IP matrix; each copy carries only one of the two tags; The FLAG copy was the bait of the mass spectrometry pull-downs; also called CRB2-FLAG; CRB2-HA; source: HEK293T, transfected, in lysate (co-IP); HEK293T, transfected, FLAG-IP on beads, washed and purified with 0.01% SDS (retina …)) not shown",percent reduction of the interaction relative to CRB1 WT,~30%
